Results taken from patent US20220411504A1 (Janssen / Centocor, published 2022).

How the values were obtained:
[1] = molecular target: HLA-G on cells (K562-HLA-G and HLA-G expressing tumor cells) (human); assay: cell-based or functional assay
[2] = molecular target: T1, CD3W147 (homodimeric CD3εγ-Fc) (human, biotinylated); assay: ELISA, E. coli supernatant (heated to 60° C., cooled) on biotinylated CD3W147
T1 construct: also called recombinant CD3
T1 chain: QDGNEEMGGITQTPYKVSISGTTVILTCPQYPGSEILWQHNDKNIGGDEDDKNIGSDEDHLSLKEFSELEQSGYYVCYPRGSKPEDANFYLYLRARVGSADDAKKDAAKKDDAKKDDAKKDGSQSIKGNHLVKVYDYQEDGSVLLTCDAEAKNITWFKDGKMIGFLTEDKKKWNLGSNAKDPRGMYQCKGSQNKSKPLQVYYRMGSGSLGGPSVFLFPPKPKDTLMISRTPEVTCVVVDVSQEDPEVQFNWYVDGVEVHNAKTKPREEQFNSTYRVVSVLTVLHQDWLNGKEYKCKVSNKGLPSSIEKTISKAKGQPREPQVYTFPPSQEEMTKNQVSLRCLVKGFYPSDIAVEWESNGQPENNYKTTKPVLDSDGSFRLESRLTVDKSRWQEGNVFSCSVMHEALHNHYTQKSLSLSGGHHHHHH

[3] = molecular target: T2, Human CD3 epsilon (CD3ε) of the T cell receptor complex on cells (human, UniProt P07766 23-207); assay: flow cytometry, E. coli supernatant on human T cells
T2 construct: On Jurkat cells and primary human (pan) T cells; also called T-cell surface glycoprotein CD3 epsilon chain; T3E
T2 sequence (P07766 23-207 limits assumed, one chain of several): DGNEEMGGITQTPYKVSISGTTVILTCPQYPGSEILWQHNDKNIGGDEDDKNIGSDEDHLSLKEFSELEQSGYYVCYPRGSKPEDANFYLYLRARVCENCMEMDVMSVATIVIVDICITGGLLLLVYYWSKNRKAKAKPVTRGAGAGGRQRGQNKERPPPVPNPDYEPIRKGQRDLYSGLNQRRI

Binder	Cytotoxicity, EC50 (T cell-mediated, NCI-H2009-b2m target cells, 72 hr) [1]	binding result [2]	MFI (n = 2) [3]
HC3B214 (bispecific antibody, human IgG1, kappa, L234A L235A) heavy: EVQLVESGGGLVKPGGSLRLSCAASGFTFSRYNMNWVRQAPGKGLEWVSSISTSSNYIYYADSVKGRFTFSRDNAKNSLDLQMSGLRAEDTAIYYCTRGWGPFDYWGQGTLVTVSSASTKGPSVFPLAPSSKSTSGGTAALGCLVKDYFPEPVTVSWNSGALTSGVHTFPAVLQSSGLYSLSSVVTVPSSSLGTQTYICNVNHKPSNTKVDKKVEPKSCDKTHTCPPCPAPEAAGGPSVFLFPPKPKDTLMISRTPEVTCVVVSVSHEDPEVKFNWYVDGVEVHNAKTKPREEQYNSTYRVVSVLTVLHQDWLNGKEYKCKVSNKALPAPIEKTISKAKGQPREPQVYVYPPSREEMTKNQVSLTCLVKGFYPSDIAVEWESNGQPENNYKTTPPVLDSDGSFALVSKLTVDKSRWQQGNVFSCSVMHEALHNHYTQKSLSLSPG light: DIQMTQSPSSLSASVGDRVTITCRARQSIGTAIHWYQQKPGKAPKLLIKYASESISGVPSRFSGSGSGTDFTLTISSVQPEDFATYYCQQSGSWPYTFGQGTKLEIKRTVAAPSVFIFPPSDEQLKSGTASVVCLLNNFYPREAKVQWKVDNALQSGNSQESVTEQDSKDSTYSLSSTLTLSKADYEKHKVYACEVTHQGLSSPVTKSFNRGEC scFv: not shown	0.138 nM		
HC3B238 (bispecific antibody, human IgG1, kappa, L234A L235A) scFv: EVQLVESGGGLVKPGGSLRLSCAASGFTFSRYNMNWVRQAPGKGLEWVSSISTSSNYIYYADSVKGRFTFSRDNAKNSLDLQMSGLRAEDTAIYYCTRGWGPFDYWGQGTLVTVSSGGSEGKSSGSGSESKSTGGSDIQMTQSPSSLSASVGDRVTITCRARQSIGTAIHWYQQKPGKAPKLLIKYASESISGVPSRFSGSGSGTDFTLTISSVQPEDFATYYCQQSGSWPYTFGQGTKLEIKEPKSSDKTHTCPPCPAPEAAGGPSVFLFPPKPKDTLMISRTPEVTCVVVSVSHEDPEVKFNWYVDGVEVHNAKTKPREEQYNSTYRVVSVLTVLHQDWLNGKEYKCKVSNKALPAPIEKTISKAKGQPREPQVYVYPPSREEMTKNQVSLTCLVKGFYPSDIAVEWESNGQPENNYKTTPPVLDSDGSFALVSKLTVDKSRWQQGNVFSCSVMHEALHNHYTQKSLSLSPGK heavy: QVQLQQSGPGLVKPSQTLSLTCAISGDSVSSNRAAWNWIRQSPSRGLEWLGRTYYRSKWYNDYAVSVKSRITINPDTSKNQISLQLNSVTPEDTAVYYCARVRPGIPFDYWGQGTPVTVSSASTKGPSVFPLAPSSKSTSGGTAALGCLVKDYFPEPVTVSWNSGALTSGVHTFPAVLQSSGLYSLSSVVTVPSSSLGTQTYICNVNHKPSNTKVDKKVEPKSCDKTHTCPPCPAPEAAGGPSVFLFPPKPKDTLMISRTPEVTCVVVSVSHEDPEVKFNWYVDGVEVHNAKTKPREEQYNSTYRVVSVLTVLHQDWLNGKEYKCKVSNKALPAPIEKTISKAKGQPREPQVYVLPPSREEMTKNQVSLLCLVKGFYPSDIAVEWESNGQPENNYLTWPPVLDSDGSFFLYSKLTVDKSRWQQGNVFSCSVMHEALHNHYTQKSLSLSPG light: not shown	0.0173 nM		
HC3B236 (bispecific antibody, human IgG1, kappa, L234A L235A) scFv: QSALTQPASVSGSPGQSITISCTGTSSNIGTYKFVSWYQQHPGKAPKVMIYEVSKRPSGVSNRFSGSKSGNTASLTISGLQAEDEADYYCVSYAGSGTLLFGGGTKLTVLGGSEGKSSGSGSESKSTGGSQVQLQQSGPGLVKPSQTLSLTCAISGDSVFNNNAAWSWIRQSPSRGLEWLGRTYYRSKWLYDYAVSVKSRITINPDTSKNQFSLQLNSVTPEDTAVYYCARGYSSSFDYWGQGTLVTVSSEPKSSDKTHTCPPCPAPEAAGGPSVFLFPPKPKDTLMISRTPEVTCVVVSVSHEDPEVKFNWYVDGVEVHNAKTKPREEQYNSTYRVVSVLTVLHQDWLNGKEYKCKVSNKALPAPIEKTISKAKGQPREPQVYVYPPSREEMTKNQVSLTCLVKGFYPSDIAVEWESNGQPENNYKTTPPVLDSDGSFALVSKLTVDKSRWQQGNVFSCSVMHEALHNHYTQKSLSLSPG heavy: QVQLQQSGPGLVKPSQTLSLTCAISGDSVSSNRAAWNWIRQSPSRGLEWLGRTYYRSKWYNDYAVSVKSRITINPDTSKNQISLQLNSVTPEDTAVYYCARVRPGIPFDYWGQGTPVTVSSASTKGPSVFPLAPSSKSTSGGTAALGCLVKDYFPEPVTVSWNSGALTSGVHTFPAVLQSSGLYSLSSVVTVPSSSLGTQTYICNVNHKPSNTKVDKKVEPKSCDKTHTCPPCPAPEAAGGPSVFLFPPKPKDTLMISRTPEVTCVVVSVSHEDPEVKFNWYVDGVEVHNAKTKPREEQYNSTYRVVSVLTVLHQDWLNGKEYKCKVSNKALPAPIEKTISKAKGQPREPQVYVLPPSREEMTKNQVSLLCLVKGFYPSDIAVEWESNGQPENNYLTWPPVLDSDGSFFLYSKLTVDKSRWQQGNVFSCSVMHEALHNHYTQKSLSLSPG light: not shown	4.54 nM		
HC3B237 (bispecific antibody, human IgG1, kappa, L234A L235A) scFv: DIQMTQSPSSLSASVGDRVTITCRARQSIGTAIHWYQQKPGKAPKLLIKYASESISGVPSRFSGSGSGTDFTLTISSVQPEDFATYYCQQSGSWPYTFGQGTKLEIKGGSEGKSSGSGSESKSTGGSEVQLVESGGGLVKPGGSLRLSCAASGFTFSRYNMNWVRQAPGKGLEWVSSISTSSNYIYYADSVKGRFTFSRDNAKNSLDLQMSGLRAEDTAIYYCTRGWGPFDYWGQGTLVTVSSEPKSSDKTHTCPPCPAPEAAGGPSVFLFPPKPKDTLMISRTPEVTCVVVSVSHEDPEVKFNWYVDGVEVHNAKTKPREEQYNSTYRVVSVLTVLHQDWLNGKEYKCKVSNKALPAPIEKTISKAKGQPREPQVYVYPPSREEMTKNQVSLTCLVKGFYPSDIAVEWESNGQPENNYKTTPPVLDSDGSFALVSKLTVDKSRWQQGNVFSCSVMHEALHNHYTQKSLSLSPGK heavy: QVQLQQSGPGLVKPSQTLSLTCAISGDSVSSNRAAWNWIRQSPSRGLEWLGRTYYRSKWYNDYAVSVKSRITINPDTSKNQISLQLNSVTPEDTAVYYCARVRPGIPFDYWGQGTPVTVSSASTKGPSVFPLAPSSKSTSGGTAALGCLVKDYFPEPVTVSWNSGALTSGVHTFPAVLQSSGLYSLSSVVTVPSSSLGTQTYICNVNHKPSNTKVDKKVEPKSCDKTHTCPPCPAPEAAGGPSVFLFPPKPKDTLMISRTPEVTCVVVSVSHEDPEVKFNWYVDGVEVHNAKTKPREEQYNSTYRVVSVLTVLHQDWLNGKEYKCKVSNKALPAPIEKTISKAKGQPREPQVYVLPPSREEMTKNQVSLLCLVKGFYPSDIAVEWESNGQPENNYLTWPPVLDSDGSFFLYSKLTVDKSRWQQGNVFSCSVMHEALHNHYTQKSLSLSPG light: not shown	0.133 nM		
CD3W234-HL-E.c. (scFv, E. coli supernatant; also called CD3B815-HL-scFV) scFv: EVQLVESGGGLVKPGGSLRLSCAASGFTFSRYNMNWVRQAPGKGLEWVSSISTSSNYIYYADSVKGRFTFSRDNAKNSLDLQMSGLRAEDTAIYYCTRGWGPFDYWGQGTLVTVSSGTEGKSSGSGSESKSTDILLTQSPGILSVSPGERVSFSCRARQSIGTAIHWYQQRTNGSPRLLIKYASESISGIPSRFSGSGSGTDFTLTINSVESEDIADYYCQQSNSWPYTFGGGTKLEIKGPGGQHHHHHHGAYPYDVPDYAS		binds	66800
CD3W248-HL-E.c. (scFv, E. coli supernatant) scFv: EVQLVESGGGLVKPGGSLRLSCAASGFTFSRYNMNWVRQAPGKGLEWVSSISTSSNYIYYADSVKGRFTFSRDNAKNSLDLQMSGLRAEDTAIYYCTRGWGPFDYWGQGTLVTVSSGTEGKSSGSGSESKSTDILLTQSPGILSVSPGERVSFSCRARQSIGTAIHWYQQRTNGSPRLLIKYASESISGIPSRFSGSGSGTDFTLTINSVESEDIADYYCQQSGSWPYTFGGGTKLEIKGPGGQHHHHHHGAYPYDVPDYAS		binds	60400
CD3W245-HL-E.c. (scFv, E. coli supernatant) scFv: EVQLVESGGGLVKPGGSLRLSCAASGFTFSRYNMNWVRQAPGKGLEWVSSISTSSNYIYYADSVKGRFTFSRDNAKNSLDLQMSGLRAEDTAIYYCTRGWGPFDYWGQGTLVTVSSGTEGKSSGSGSESKSTDIQMTQSPSSLSASVGDRVTITCRARQSIGTAIHWYQQKPGKAPKLLIKYASESISGVPSRFSGSGSGTDFTLTISSLQPEDFATYYCQQSGSWPYTFGQGTKLEIKGPGGQHHHHHHGAYPYDVPDYAS		binds	178000
CD3W241-HL-E.C. (scFv) EVQLVESGGGLVKPGGSLRLSCAASGFTFSRYNMNWVRQAPGKGLEWVSSISTSSNYIYYADSVKGRFTFSRDNAKNSLDLQMSGLRAEDTAIYYCTRGWGPFDYWGQGTLVTVSSGTEGKSSGSGSESKSTDIQMTQSPSSLSASVGDRVTITCRARQSIGTAIHWYQQKPGKAPKLLIYYASESISGVPSRFSGSGSGTDFTLTISSVQPEDFATYYCQQSNSWPYTFGQGTKLEIKGPGGQHHHHHHGAYPYDVPDYAS			121000
CD3W242-HL-E.c. (scFv, E. coli supernatant) scFv: EVQLVESGGGLVKPGGSLRLSCAASGFTFSRYNMNWVRQAPGKGLEWVSSISTSSNYIYYADSVKGRFTFSRDNAKNSLDLQMSGLRAEDTAIYYCTRGWGPFDYWGQGTLVTVSSGTEGKSSGSGSESKSTDIQMTQSPSSLSASVGDRVTITCRARQSIGTAIHWYQQKPGKAPKLLIKYASESISGVPSRFSGSGSGTDFTLTISSLQPEDFATYYCQQSNSWPYTFGQGTKLEIKGPGGQHHHHHHGAYPYDVPDYAS		binds	126000
CD3W238-HL-E.c. (scFv, E. coli supernatant) scFv: EVQLVESGGGLVKPGGSLRLSCAASGFTFSRYNMNWVRQAPGKGLEWVSSISTSSNYIYYADSVKGRFTFSRDNAKNSLDLQMSGLRAEDTAIYYCTRGWGPFDYWGQGTLVTVSSGTEGKSSGSGSESKSTDIQMTQSPSSLSASVGDRVTITCRARQSIGTAIHWYQQKPGKAPKLLIYYASESISGVPSRFSGSGSGTDFTLTISSLQPEDFATYYCQQSNSWPYTFGQGTKLEIKGPGGQHHHHHHGAYPYDVPDYAS		binds	137000
